Measurements from patent publication US20190367615A1 (BEIJING HANMI PHARM, published 2019).

Columns and labels:
[1] = molecular target: Recombinant human CD28 (Sino Biological Inc.) (human, UniProt P10747 19-152); assay: binding specificity ELISA, coated recombinant human CD28, anti-human IgG-HRP
Experimental: (§1) The plate was washed five times with PBST and blocked with 300 μL/well of PBST containing 1% BSA and incubated at 25° C. for 1 hour. The plate was washed five times with PBST. […] The plate was washed five times with PBST. Then, horseradish peroxidase-labeled anti-human IgG antibody (Chemicon, Catalog Number AP309P) 1:2000 diluted in PBST containing 1% BSA was added, 100 μL was added to each well, incubated at 25° C. for 1 hour. The plate was washed five times with PBST. 100 μL/well of colorimetric substrate TMB was added and incubated at room temperature for 10 minutes. Color development was terminated by adding 100 μL/well of 1 M H₂SO₄. The absorbance at 450 nm was read on a microplate reader.

[2] = molecular target: T1, Recombinant human ICOS (Sino Biological Inc.) (human, UniProt Q9Y6W8 21-141); assay: binding specificity ELISA, coated recombinant human ICOS, anti-human IgG-HRP
T1 sequence (looked up): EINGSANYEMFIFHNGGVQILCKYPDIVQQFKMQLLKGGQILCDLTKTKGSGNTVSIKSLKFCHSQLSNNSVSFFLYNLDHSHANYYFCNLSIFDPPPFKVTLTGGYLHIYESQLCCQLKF
Experimental: as §1

[3] = molecular target: Recombinant monkey PD-1 (Sino Biological Inc.) (monkey); assay: species specificity ELISA, coated recombinant monkey PD-1 (1 ug/mL), anti-human IgG-HRP, OD450nm
Experimental: (§2) Recombinant human PD-1, monkey PD-1, rat PD-1 and mouse PD-1 (all purchased from Sino Biological Inc.), were coated on a 96-well high-absorbing ELISA plate with a carbonate buffer solution with pH 9.6, the coating concentration was 1 μg/mL, the coating amount was 100 μL per well, and the coating was carried out at 4° C. overnight. The plate was washed five times with PBST and blocked with 300 μL/well of PBST containing 1% BSA, and then incubated at 25° C. for 1 hour. The plate was washed five times with PBST. […] The plate was washed five times with PBST. Then, horseradish peroxidase-labeled anti-human IgG antibody (Chemicon, Catalog Number AP309P) 1:2000 diluted in PBST containing 1% BSA was added, 100 μL per well, incubated at 25° C. for 1 hour. The plate was washed five times with PBST. 100 μL/well of colorimetric substrate TMB was added and incubated at room temperature for 10 minutes. Color development was terminated by adding 100 μL/well of 1 M H₂SO₄: The absorbance at 450 nm was read on a microplate reader.

[4] = molecular target: T2, Recombinant human PD-1-Fc (human, UniProt Q15116 25-167, limits assumed); assay: competition ELISA, coated human PD-1-Fc, blocked ligand biotin-labeled PD-L2 (final 160 nM), streptavidin-HRP, OD450nm [panel PD-1/PD-L2 Blocking Activity]
T2 construct: also called recombinant human PD-1-Fc protein; not shown: Fc part
Experimental: Recombinant human PD-1-Fc was coated on a 96-well high-absorbing ELISA plate with a carbonate buffer solution with pH 9.6, the coating concentration was 1 μg/mL, the coating amount was 100 μL per well, and the coating was carried at 4° C. out overnight. The plate was washed five times with PBST and blocked with 300 μL/well of PBST containing 1% BSA and incubated at 25° C. for 1 hour. The plate was washed five times with PBST. The positive control and the anti-human PD-1 antibody sample were added, 50 μL per well. […] The plate was washed five times with PBST. Then, Streptavidin-HRP (BD Pharmingen, Catalog Number 554066) 1:1000 diluted in PBST containing 1% BSA was added, 100 μL per well, incubated at 25° C. for 1 hour. The plate was washed five times with PBST. 100 μL/well of colorimetric substrate TMB was added and incubated at room temperature for 10 minutes. Color development was terminated by adding 100 μL/well of 1 M H₂SO₄. The absorbance at 450 nm was read on a microplate reader.

[5] = molecular target: T3, Recombinant mouse PD-1 (Sino Biological Inc.) (mouse, UniProt Q02242 25-167); assay: species specificity ELISA, coated recombinant mouse PD-1, anti-human IgG-HRP
T3 sequence (looked up): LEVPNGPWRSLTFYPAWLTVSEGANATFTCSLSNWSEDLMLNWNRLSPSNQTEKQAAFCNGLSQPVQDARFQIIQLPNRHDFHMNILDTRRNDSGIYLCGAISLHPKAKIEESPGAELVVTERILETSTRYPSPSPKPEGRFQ
Experimental: as §2

T2 sequence (Q15116 25-167 limits assumed): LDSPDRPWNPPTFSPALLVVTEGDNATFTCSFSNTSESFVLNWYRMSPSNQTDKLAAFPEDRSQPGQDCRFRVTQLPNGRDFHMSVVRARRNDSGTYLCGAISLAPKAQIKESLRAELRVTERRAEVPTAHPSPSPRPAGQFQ
Sequence of Recombinant human CD28 (Sino Biological Inc.) (P10747 19-152 limits assumed): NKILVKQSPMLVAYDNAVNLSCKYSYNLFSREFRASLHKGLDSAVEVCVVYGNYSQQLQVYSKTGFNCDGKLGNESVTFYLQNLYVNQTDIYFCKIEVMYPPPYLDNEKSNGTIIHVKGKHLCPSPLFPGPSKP

binding result [1]: no binding
binding result [2]: no binding
EC50 [3]: 0.1 nM
IC50 [4]: 0.895 nM
binding result [5]: no binding (tested: about 20 nM)
B1: anti-human PD-1 chimeric monoclonal antibody (antibody, human IgG4 S228P, kappa, V domains shown)
VH: EVQLQESGGGLVKPGGSLKLSCAASGFTFSSYGMSWVRQTPEKRLEWVASISGGGRYTYYPDSMKGRFTISRDNAKNNLHLQMSSLRSEDTALYYCVYEYFYTMDYWGQGTSVTVSS
VL: DIVLTQSPATLSVTPGDSVSLSCRANQSISNNLHWYQQRSHESPRLLIRFASQSISGIPSRFSGSGSGTDFTLSINSVETEDFGMYFCQQSDNWPLTFGAGTKLEIKR
notes: expressed in 293F cells; also called Anti-human PD-1 Chimeric Antibody; chimeric anti-human PD-1 monoclonal antibody
